B1: Tripartite motif-containing protein 44, residues 174 to 218; numbered along this chain, Q96DX7 (parent)
chain: VAKRKCPDHGLDLSTYCQEDRQLICVLCPVIGAHQGHQLSTLDEA

Variants of: B1
Assay: abundance fitness (aPCA) (normalised: wild type 0, dead -1); higher = more abundant; growth selection in yeast, the domain comes from the species named
Conditions: Homo sapiens

Abundance fitness, by site and new letter:
L27: Y -0.059 | N 0.055 | P -0.624 | C -0.283 | W -0.216 | V -0.151 | F -0.137 | M 0.039 | G -0.25 | T -0.212 | E 0.063 | I -0.119 | S -0.024 | R 0.024 | H -0.069 | Q 0.127
I31: M 0.016 | S 0.097 | L -0.02 | V 0.032 | C -0.103 | W -0.13 | K 0.067 | R 0.003 | Y -0.077 | A 0.022 | E 0.053 | D 0.062 | H 0.029 | F -0.11 | G -0.002 | T 0.052 | Q 0.028 | N 0.059 | P -0.306
H37: E -0.565 | K -0.606 | N -0.584 | A -0.679 | F -0.931 | D -0.589 | Y -0.849 | L -0.839 | M -0.676 | S -0.678 | Q -0.599 | C -0.055 | W -0.95 | P -0.588 | R -0.677 | I -1.01
L39: F -0.026 | D -0.025 | E -0.021 | T 0.019 | C -0.06 | A -0.02 | H 0.011 | R -0.011 | G -0.041 | K -0.06 | Q 0.033 | V -0.019 | I -0.024 | S -0.021 | P -0.032 | M 0.028 | Y -0.129 | W -0.035 | N -0.043
V30: R 0.019 | L -0.076 | A -0.011 | G -0.144 | P -0.369 | T 0.051 | F -0.133 | I -0.032 | M -0.008 | Q 0.045 | E 0.013 | N -0.057 | S 0.005 | H -0.046 | D 0.001 | W -0.159 | C -0.073 | K 0.096
H34: I -0.717 | Q -0.605 | Y -0.665 | D -0.575 | E -0.647 | C -0.107 | S -0.689 | A -0.673 | P -0.701 | K -0.634 | V -0.802 | W -0.895 | G -0.65 | L -0.925 | R -0.653 | T -0.665 | F -0.776
C28: D -0.557 | E -0.704 | M -1.07 | P -0.882 | K -0.744 | L -1.12 | I -1.09 | T -0.982 | F -0.791 | W -1.14 | N -0.759 | A -0.897 | R -1 | V -1.06 | H -0.994 | Y -0.919
C25: P -0.649 | Y -0.601 | M -0.968 | W -1.02 | Q -0.65 | L -1.25 | K -0.634 | G -0.774 | V -1.08 | R -0.728 | I -1.11 | H -0.798
D43: G -0.013 | H -0.058 | V -0.056 | N -0.026 | A -0.036 | K -0.073 | M -0.072 | W -0.211 | E 0.023 | Q -0.035 | F -0.157 | P 0 | R -0.072 | I -0.132 | T -0.042 | S -0.026 | L -0.107 | Y -0.112 | C -0.042
Q35: S -0.063 | Y -0.067 | L -0.105 | K 0.002 | C -0.089 | I -0.045 | W -0.186 | V -0.035 | E -0.021 | R -0.1 | G -0.152 | F -0.162 | D -0.143 | H 0.008 | M -0.031 | A -0.054 | N -0.092 | T -0.037
G36: P -0.561 | A -0.131 | V -0.519 | R -0.158 | S -0.117 | N -0.007 | F -0.193 | K -0.128 | I -0.623 | C -0.172 | Q -0.088 | E -0.048 | H -0.033 | D -0.071 | W -0.409 | L -0.266 | M -0.245 | Y -0.363
G32: M -0.663 | F -0.871 | S -0.393 | H -0.49 | Y -0.743 | E -0.355 | P -0.22 | N -0.465 | V -0.674 | C -0.575 | W -0.778 | K -0.261 | I -0.757 | L -0.775 | D -0.417 | R -0.492 | Q -0.491 | A -0.425
S40: W -0.177 | T -0.066 | A -0.008 | L -0.084 | I -0.079 | N -0.118 | Q 0.012 | K -0.041 | G 0.015 | D -0.032 | V -0.083 | E -0.012 | H 0.022 | F -0.108 | R -0.033 | P -0.044 | C -0.027 | M -0.103
E44: G -0.002 | H 0.102 | D -0.053 | C -0.055 | L -0.082 | I -0.132 | A 0.009 | F -0.123 | K -0.056
Q38: D 0.036 | R -0.006 | V -0.071 | F -0.079 | H 0.024 | P -0.03 | G -0.009 | T 0.039 | W -0.255 | A -0.032 | M 0 | L -0.061 | C -0.051 | N 0.029 | Y -0.145 | K 0.03 | E 0.007 | I -0.045
T41: I -0.11 | L -0.087 | E 0.02 | M -0.065 | Q 0.011 | G 0.009 | D 0.016 | S 0.032 | C -0.029 | F -0.254 | H -0.102 | P 0.003 | V -0.038 | Y -0.098 | W -0.131 | N 0.009 | A 0.024
L42: G 0.05 | H 0.056 | W -0.034 | R 0.024 | K 0.043 | P 0.027 | S 0.033 | N 0.002 | E 0.035 | V 0.023 | F -0.031 | Y 0.017 | C 0.014 | Q 0.048 | T 0.068 | A 0.045 | D 0.028 | M -0.003
V26: D 0.046 | Y -0.041 | P 0.029 | G 0.002 | T 0.054 | C 0.002 | L -0.025 | M -0.011 | R 0.082 | K 0.113 | E 0.066 | N 0.062 | W -0.065 | S 0.084 | A 0.042 | Q 0.074 | F -0.052
A33: E -0.032 | N -0.014 | S 0.019 | K -0.006 | L -0.079 | D -0.068 | V -0.05 | W -0.148 | C -0.048 | Y -0.094 | H -0.031 | I -0.031
P29: M -0.04 | W -0.207 | C -0.2 | H -0.016 | L -0.117 | G -0.083 | F -0.198 | T -0.021 | R -0.054 | K -0.004 | V -0.133 | A -0.097 | E -0.031 | S 0.012 | N -0.064 | D -0.077 | Y -0.098 | I -0.168 | Q -0.071

From the Human Domainome abundance scans (Beltran et al. 2025)
